Drawing on article PMC6061780, this text covers Kd for 3 substances.

Sequence of Sc eIF4E (residues T25–L213), His6 tag removed (Saccharomyces cerevisiae) (P07260 25-213): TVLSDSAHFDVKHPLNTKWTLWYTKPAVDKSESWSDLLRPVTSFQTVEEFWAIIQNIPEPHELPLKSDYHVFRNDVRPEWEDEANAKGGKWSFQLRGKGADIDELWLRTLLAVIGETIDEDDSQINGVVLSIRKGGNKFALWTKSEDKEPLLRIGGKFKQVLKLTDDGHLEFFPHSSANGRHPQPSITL
Sequence of Sc p20 canonical motif (C)-GB1 (domain or fragment) (P12962 whole entry, the tested form may be a part): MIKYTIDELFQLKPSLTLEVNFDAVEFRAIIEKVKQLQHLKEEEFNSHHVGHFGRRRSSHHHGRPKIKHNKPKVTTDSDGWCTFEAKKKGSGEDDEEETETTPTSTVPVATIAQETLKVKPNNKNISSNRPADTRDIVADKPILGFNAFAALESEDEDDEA

This assay has as its target Sc eIF4E (residues T25–L213), His6 tag removed (Saccharomyces cerevisiae) (UniProt P07260). Kind of assay: ITC. For orientation: ITC needs no label: the signal is the heat of the interaction.
For the substance “Sc eIF4G (residues V448–N500; C+L+NC)-GB1 (from UniProt P39935 448-500) (domain or fragment)”, the Kd – broadly, a measure of binding affinity in units of concentration – was found to be 70 nM. In other words, the double-digit nanomolar range.

The substance “Sc eIF4G canonical motif (C)-GB1 (domain or fragment)” had a Kd of 2000 nM. Then “Sc p20 canonical motif (C)-GB1 (domain or fragment)”, with 20 nM.
